Test results as given in the RNAGym collection of RNA variant scans (doi:10.1073/pnas.2313332121).

B1: TPR t1 (parent)
chain: GACCAAUCUGCCCUCAGAGCUCGAGAACAUCUUCGGAUGCAGAGGAGGCAGGCUUCGGUGGCGCGAUAGCGCCAACGUCCUCAACCUCCAAUGCAUCCCACCACAUGAUGAUGCCUGAAGAGCCUUGGUUUUUUG

Variants of: B1
Assay: polymerase ribozyme fitness, log enrichment relative to wild type (log ratio); higher = more active; in vitro selection for triplet polymerase activity
Procedure, shortened: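 Both subunits of a heterodimeric triplet polymerase ribozyme were given their own mutant library, built by PCR and transcribed. Each library was annealed with a biotinylated primer, the partner subunit and triplets, incubated frozen at −7 °C, and its extended constructs gel-excised, captured on streptavidin beads and amplified by RT-PCR, all in one round done in triplicate. Fitness is the logarithm of genotype enrichment relative to wild-type enrichment, with replicates averaged by inverse-variance weighting. That logarithm is base 2, and Illumina-sequenced genotypes needed ≥10 input reads and ≥1 read per output.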

Row | Variant | polymerase ribozyme fitness (log ratio)
1 | A27U G47A U59A U106G U133G | -4.03
2 | C28G A37G G48A C104U C123A | -2.85
3 | C28A C64G A111U C115G | -6.15
4 | C28G C49G G52A G120A | -4.24
5 | A27U C53A G71U C88A G117C | -6.86
6 | A27G C64A C115G | -7.5
7 | A27G C72A G93C G120U | -2.9
8 | A27U C72A C94A | -4.07
9 | A27G A43G G63C | -4.38
10 | C28A A74C | -4.96
11 | A27C G77A | -4.66
12 | A27G A41G G71A | -2.99
13 | A27C C88G U129C | -4.24
14 | A27U C89U C124A | -1.39
15 | A27G G71A | -1.68
16 | C28G A95U G110C A111C U133A | -1.6
17 | A27U G47A C49U U96A A119U | -5.56
18 | A27G C28U U116C U130C | -5.27
19 | C28A C124U | -2.12
20 | A27C G48U | -4.11
21 | C28A C73A C124G | -3.22
22 | A27C C62G | -4.48
23 | A27C C62U | -3.48
24 | A27U C64U U78C | -3.83

Row | Variant | polymerase ribozyme fitness (log ratio)
25 | A27G U32A G36U G44A G63C C76A | -7.06
26 | A27G U38A A83C | -2.58
27 | A27C U55C C104U | -3.54
28 | A27U G51U C62A C70U C115G | -6.61
29 | A27G A43U G47A C98U | -5.67
30 | A27U A68G | -5.61
31 | C28A C88U C101U | -5.29
32 | A27G G58A A75G | -2.58
33 | A26U U54C C86G A121U | -0.876
34 | A27C G39A C62A C124G | -4.04
35 | A27C C49G G77U | -5.08
36 | A27U C124A | -0.764
37 | A27G C56A C104U | -2.14
38 | C28A C88G | -4.25
39 | A27U C73U U131G | -1.71
40 | A27C G36A G48U A84U G113C G117U C123G | -8.45
41 | A26U C64U C82A G93A | -4.48
42 | A27U U55G C56A G69C | -6.66
43 | C28G C53A | -1.99
44 | C28A C73A C94A A119U | -5.2
45 | A26U G42U G57A U78G U106A | -5.03
46 | A27G C102U A103G U112G | -7.77
47 | A27G C70U U131A | -3.2
48 | A27C C53A C82U | -4.15

Row | Variant | polymerase ribozyme fitness (log ratio)
49 | C28G A29U C114G G127C | -5.87
50 | A27C C62U U92G | -5.85
51 | A27C A68G G71U | -6.32
52 | A27G C70U | -2.05
53 | A27G G60A | -1.17
54 | A27U U112C | -1.46
55 | A26U G47C G77A U78A | -5.33
56 | A27C G60C C73G | -2.55
57 | A27U G36C G44C G122A U126G | -5.95
58 | A27G C28U G47U G58C | -3.68
59 | A27G C56U | -1.35
60 | A26U G36C G61U U81A U87C G120C | -4
61 | A27G U38A | -3.17
62 | A27C G61U G110A C123G | -3.8
63 | A27C G36A G47C | -4.8
64 | A27C C70U | -3.87
65 | A27U A50G U133A | -2.6
66 | A27U C114U | -4.39
67 | A27G A121G | 1.32
68 | C28A C124A U125C G127U | -3.12
69 | A27G C28G | -4.25
70 | A27C A111U A118U G120A | -5.36
71 | A26U C72G | -3.37
72 | A27U G52A C73A A91C U112A | -4.52

Row | Variant | polymerase ribozyme fitness (log ratio)
73 | A27U C53G | -2.71
74 | A27U C53A | -3.49
75 | A27U C53U | -2.7
76 | A27C C88U | -3.46
77 | A26U G61U U87G C98G A121U | -6.57
78 | A27U C76A G113A A119U | -6.73
79 | A27C G42C G71U G120C U126A U130G | -6.82
80 | A27C C56U | -2.85
81 | A27C G35U C64U C80U U109A | -7.59
82 | A27G C49G G61C G63U C89G G117C | -6.39
83 | A27U A74U U87A | -2.97
84 | A27G U33G G63C G120A C123U | -5.79
85 | A27U C97U | -3.07
86 | A27C C124U | -1.18
87 | A27C C40G | -4.98
88 | A27C C86A | -4.06
89 | A27U A37C | -2.87
90 | C28A U38G G60A | -5.64
91 | C28G C40A G71A C94U G110C | -1.03
92 | C28G A46G G120A U130A | -2.51
93 | A27U C123A | -1.74
94 | A27U C70A | -4.74
95 | A27U C70G | -6.31
96 | A27U C70U | -3.44

Row | Variant | polymerase ribozyme fitness (log ratio)
97 | A27G A41G C86A | -2.64
98 | C28A C49U G69U G113A | -1.42
99 | A27C C72U | -2.78
100 | A27U U54G U116A C124A G127A | -3.59
101 | A27C G71U | -3
102 | C28G C53G U59A C73A C89A U109G A111U G120A | -6.66
103 | A26U G71A C94U C123G U132C | -2.78
104 | A27U G47C | -4.91
105 | A27U G47A | -4.02
106 | A27G A83G G93A | -3
107 | A26U G52U C56U | -3.49
108 | A27U G48C | -3.79
109 | C28A A75G C86G C123U | -5.57
110 | A26U C86A G110A | -5.7
111 | C28A C80U A111G | -5.64
112 | A27U G44C C72U C104U | -4.18
113 | A27G G69C | -2.33
114 | A27U C34U G45U G69U | -5.7
115 | A27U U30C C76A C99G C102A A105U C115U | -6.7
116 | A26U G39C G61A A83U G110A A121G | -5.04
117 | A27U G69U C101A | -2.96
118 | A27U G36U G60U | -4.13
119 | C28G C49U U92A G110A | -5.35
120 | C28A C70A | -4.81

Row | Variant | polymerase ribozyme fitness (log ratio)
121 | C28A G127C | -5.95
122 | A27G G47C A100U | -4.85
123 | A27U G60C | -3.62
124 | A27G G39A C53A C85A C89A G113C | -5.16
125 | A26U C97A A121U | -5.2
126 | A27U G63A G69U U131C | -4.16
127 | A27C C72U C124U | -0.653
128 | A27C G57C C85A G135U | -4.97
129 | C28A G110C C115U U133A | -5.27
130 | A27G A95U | -2.82
131 | A27G A103U U112A U130C | -5.43
132 | A27U U116G | -5.63
133 | A27U G36C G135U | -5.51
134 | A26U G65A G93C C98U C123U | -6.78
135 | C28G A37C A91C | -6.42
136 | A27G C88U C115U | -4.85
137 | A27C A29U C56G | -4.23
138 | A26U C64U A118G | -3.85
139 | A26U U78A G110U G120C U133G | -7.89
140 | A26U U126G | -4.96
141 | A27G A46G C101A | -3.22
142 | A27C G57A C123A | -4.55
143 | A27C G57U C124G | -1.48
144 | A27G A100U | -3.23

Row | Variant | polymerase ribozyme fitness (log ratio)
145 | A27U C79G | -4.46
146 | A27U C79A | -3.85
147 | A27U C62A | -4.1
148 | A26U U78A | -3.18
149 | A26U G135U | -4.2
150 | A26U U96A C97A C124U | -5.98
151 | A27C G45U U106C | -4.75
152 | A27G C56G C89U G110U | -3.06
153 | A27C U54C C70U | -4.38
154 | A27C C79U A91C G120A | -4.64
155 | A27U G60A C62U G120C | -2.69
156 | A27U C82G C102A C123A | -4.66
157 | A27G G113U | -3.25
158 | A27U A46G C72U G120A | -2.7
159 | A27U A84C G120U U125C | -1.52
160 | A26U G61C U96A C114U G117A | -5.84
161 | A27U G71C | -4.45
162 | A27U G120A | -1.65
163 | A27U G120U | -2.65
164 | A27U G44U | -3.87
165 | A27G G51A G61C | -4
166 | A27G U87C | -1.74
167 | A27U A29C G47A C53G A121C | -3.53
